In data set [1] the test system is CbAgo (Clostridium butyricum). The data set can be described thus: cleavage_in_vitro. The settings on record: 5'-phosphate.
Data set [2] has as its target T1, RecC protein (wild type, N-terminal 6xHis tag), P07648.
T1 chain: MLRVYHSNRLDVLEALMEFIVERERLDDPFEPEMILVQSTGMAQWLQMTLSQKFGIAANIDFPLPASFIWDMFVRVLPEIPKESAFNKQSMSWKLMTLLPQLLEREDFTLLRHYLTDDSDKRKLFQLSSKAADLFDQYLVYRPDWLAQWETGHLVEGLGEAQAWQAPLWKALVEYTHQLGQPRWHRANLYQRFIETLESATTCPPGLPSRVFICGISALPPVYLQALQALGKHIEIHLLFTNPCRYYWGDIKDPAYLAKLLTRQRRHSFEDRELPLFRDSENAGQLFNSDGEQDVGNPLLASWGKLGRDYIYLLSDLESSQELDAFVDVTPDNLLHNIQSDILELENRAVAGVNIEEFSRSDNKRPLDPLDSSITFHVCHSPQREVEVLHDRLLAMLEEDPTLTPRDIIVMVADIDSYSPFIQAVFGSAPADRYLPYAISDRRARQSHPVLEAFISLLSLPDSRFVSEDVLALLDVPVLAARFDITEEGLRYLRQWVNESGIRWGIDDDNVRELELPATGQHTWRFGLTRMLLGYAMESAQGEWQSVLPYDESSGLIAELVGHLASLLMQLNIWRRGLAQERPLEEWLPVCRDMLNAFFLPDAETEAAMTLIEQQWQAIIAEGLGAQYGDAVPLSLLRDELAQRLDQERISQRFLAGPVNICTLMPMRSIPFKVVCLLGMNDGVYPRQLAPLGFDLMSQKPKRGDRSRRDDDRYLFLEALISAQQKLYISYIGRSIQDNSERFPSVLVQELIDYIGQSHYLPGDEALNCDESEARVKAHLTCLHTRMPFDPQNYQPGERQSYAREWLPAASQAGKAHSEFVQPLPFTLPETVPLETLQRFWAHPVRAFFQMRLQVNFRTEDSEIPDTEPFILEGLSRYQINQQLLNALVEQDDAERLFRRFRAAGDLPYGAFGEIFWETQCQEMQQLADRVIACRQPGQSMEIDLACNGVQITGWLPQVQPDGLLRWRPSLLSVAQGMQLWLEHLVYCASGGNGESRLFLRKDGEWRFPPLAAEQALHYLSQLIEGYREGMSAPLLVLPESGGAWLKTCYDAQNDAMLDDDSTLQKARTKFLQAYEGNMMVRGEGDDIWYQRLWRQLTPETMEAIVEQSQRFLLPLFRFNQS

Consider six molecules from patent US20220380738.

The molecule “AGTGCTGAGGTTGACTTAGTT / GTTTGCTGATGAACTAAGTCAACCTCAGCATCAACCTTGCGAGTCATTTCTTT [T2-A1 ; ss-phiX174]” returned an activity in data set [1] (16 min, 37 C) of 35 % cleaved.

“CGCAAGGTTAGTGCTGAGGTT / GTTTGCTGATGAACTAAGTCAACCTCAGCATCAACCTTGCGAGTCATTTCTTT [T1-C1 ; ss-phiX174]” registered an activity in data set [1] (16 min, 37 C) of 50 % cleaved.

In data set [1] (4 min, 37 C), “GTGCTGAGGTTGACTTAGTTC / GTTTGCTGATGAACTAAGTCAACCTCAGCATCAACCTTGCGAGTCATTTCTTT [T2-G1 ; ss-phiX174]” registered an activity of 80 % cleaved.

“TCGCAAGGTTAGTGCTGAGGT / GTTTGCTGATGAACTAAGTCAACCTCAGCATCAACCTTGCGAGTCATTTCTTT [T1 ; ss-phiX174]” gave an activity in data set [1] (4 min, 37 C) of 74 % cleaved.

In data set [1] (with RecdeltaB-C helicase, 15 min, 2-fold more with added CbuRecQ), “TGACTGCGATCCTGCAT / GCTAGATAGATTGACAGATTACTCAAGCAGGCATGCAGGATCGCAGTCAGATTTATGTGTCATATAGTACGTGATTCAAG / CTTGAATCACGTACTATATGACACATAAATCTGACTGCGATCCTGCATGCCTGCTTGAGTAATCTGTCAATCTATCTAGC [B12 ; 80 bp blunt substrate]” yielded an activity of 25 % cleaved.

B1: RecB^exo- (full-length nuclease deficient RecB DNA helicase variant, E1020A/D1080A/K1082A, N-terminal 6xHis tag) (protein)
chain: MSDVAETLDPLRLPLQGERLIEASAGTGKTFTIAALYLRLLLGLGGSAAFPRPLTVEELLVVTFTEAATAELRGRIRSNIHELRIACLRETTDNPLYERLLEEIDDKAQAAQWLLLAERQMDEAAVFTIHGFCQRMLNLNAFESGMLFEQQLIEDESLLRYQACADFWRRHCYPLPREIAQVVFETWKGPQALLRDINRYLQGEAPVIKAPPPDDETLASRHAQIVARIDTVKQQWRDAVGELDALIESSGIDRRKFNRSNQAKWIDKISAWAEEETNSYQLPESLEKFSQRFLEDRTKAGGETPRHPLFEAIDQLLAEPLSIRDLVITRALAEIRETVAREKRRRGELGFDDMLSRLDSALRSESGEVLAAAIRTRFPVAMIDEFQDTDPQQYRIFRRIWHHQPETALLLIGDPKQAIYAFRGADIFTYMKARSEVHAHYTLDTNWRSAPGMVNSVNKLFSQTDDAFMFREIPFIPVKSAGKNQALRFVFKGETQPAMKMWLMEGESCGVGDYQSTMAQVCAAQIRDWLQAGQRGEALLMNGDDARPVRASDISVLVRSRQEAAQVRDALTLLEIPSVYLSNRDSVFETLEAQEMLWLLQAVMTPERENTLRSALATSMMGLNALDIETLNNDEHAWDVVVEEFDGYRQIWRKRGVMPMLRALMSARNIAENLLATAGGERRLTDILHISELLQEAGTQLESEHALVRWLSQHILEPDSNASSQQMRLESDKHLVQIVTIHKSKGLEYPLVWLPFITNFRVQEQAFYHDRHSFEAVLDLNAAPESVDLAEAERLAEDLRLLYVALTRSVWHCSLGVAPLVRRRGDKKGDTDVHQSALGRLLQKGEPQDAAGLRTCIEALCDDDIAWQTAQTGDNQPWQVNDVSTAELNAKTLQRLPGDNWRVTSYSGLQQRGHGIAQDLMPRLDVDAAGVASVVEEPTLTPHQFPRGASPGTFLHSLFEDLDFTQPVDPNWVREKLELGGFESQWEPVLTEWITAVLQAPLNETGVSLSQLSARNKQVAMEFYLPISEPLIASQLDTLIRQFDPLSAGCPPLEFMQVRGMLKGFIDLVFRHEGRYYLLAYASNWLGEDSSAYTQQAMAAAMQAHRYDLQYQLYTLALHRYLRHRIADYDYEHHFGGVIYLFLRGVDKEHPQQGIYTTRPNAGLIALMDEMFAGMTLEEA
Turning to B1, the “DNA unwinding activity (DpnI-based helicase assay, capillary electrophoresis)” value in data set [2] is reported as “RecB^exo- alone is a weak DNA helicase, but its unwinding activity significantly increases after interaction with RecC protein”.
